One molecule from paper PMC10397319, “The phosphatidylinositol (4,5)-bisphosphate-Rab35 axis regulates migrasome formation” (Cell Research, 2023) can be followed below.

Ends that are not written are not given here.

The test concerns the target T1, His-GFP-Rab35-Q67L (rat, UniProt Q5U316 1-201, Q67L).
T1 construct: Rab35, cloned from rat cDNA, constitutively active mutant Q67L; the methods describe only the WT purification; also called constitutively active Rab35-Q67L; active Rab35; source: cloned into pET21b, purified; not shown: GFP, N-terminal, kept
The experiment in a line: dual-color fluorescence cross-correlation spectroscopy (dcFCCS); both free in solution; 100 nM GFP-Rab35 mixed with 500 nM Cy5-ITGα5-cyto; 20 mM HEPES pH 7.5, 100 mM NaCl, 2 mM MgCl2, 0.1% BSA; 25 °C; 5 min recording, three repeats. The conditions noted are these: both partners purified.

T1 sequence (Q5U316 whole entry Q67L): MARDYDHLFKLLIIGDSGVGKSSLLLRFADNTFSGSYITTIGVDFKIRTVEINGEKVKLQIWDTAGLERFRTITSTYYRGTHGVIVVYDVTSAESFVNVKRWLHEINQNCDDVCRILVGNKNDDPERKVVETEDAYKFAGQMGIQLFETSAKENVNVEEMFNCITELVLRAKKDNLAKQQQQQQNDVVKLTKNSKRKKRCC

B1: Cy5-ITGα5-cyto-WT (peptide)
peptide: YKLGFFKRSLPYGTAMEKAQLKPPATSDA
modifications: also: Sulfo-Cy5 label, site not given here
notes: also called cytosolic domain of integrin α5; WT peptide; source: synthetic peptide (Synpeptide Co., Ltd.), labelled with Sulfo-Cy5 NHS ester
On to B1, for which the binding result is on record as “binds”.
